The text below walks through data of patent US20210317231A1 (BYONDIS B V, published 2021).

The EC50 is the concentration giving half of the maximal effect.

T1: human 5T4 oncofoetal antigen (human, UniProt Q13641 32-420)
T1 construct: whole, on cells; also called hu 5T4; human 5T4 antigen
T1 sequence (looked up): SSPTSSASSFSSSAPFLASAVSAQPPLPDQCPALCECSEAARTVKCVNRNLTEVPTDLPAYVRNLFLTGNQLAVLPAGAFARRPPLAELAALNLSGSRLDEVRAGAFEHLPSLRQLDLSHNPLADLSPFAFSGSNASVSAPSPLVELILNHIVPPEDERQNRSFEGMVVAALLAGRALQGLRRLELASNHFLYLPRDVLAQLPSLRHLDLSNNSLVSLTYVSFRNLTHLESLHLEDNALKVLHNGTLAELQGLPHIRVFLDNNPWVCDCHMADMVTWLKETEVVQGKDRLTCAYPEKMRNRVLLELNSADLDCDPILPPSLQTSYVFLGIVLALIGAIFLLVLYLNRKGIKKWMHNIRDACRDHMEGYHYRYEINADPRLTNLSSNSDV

T2: cynomolgus monkey 5T4 antigen (cynomolgus monkey, UniProt Q4R8Y9 35-420)
T2 construct: whole, on cells; also called cyno 5T4
T2 sequence (looked up): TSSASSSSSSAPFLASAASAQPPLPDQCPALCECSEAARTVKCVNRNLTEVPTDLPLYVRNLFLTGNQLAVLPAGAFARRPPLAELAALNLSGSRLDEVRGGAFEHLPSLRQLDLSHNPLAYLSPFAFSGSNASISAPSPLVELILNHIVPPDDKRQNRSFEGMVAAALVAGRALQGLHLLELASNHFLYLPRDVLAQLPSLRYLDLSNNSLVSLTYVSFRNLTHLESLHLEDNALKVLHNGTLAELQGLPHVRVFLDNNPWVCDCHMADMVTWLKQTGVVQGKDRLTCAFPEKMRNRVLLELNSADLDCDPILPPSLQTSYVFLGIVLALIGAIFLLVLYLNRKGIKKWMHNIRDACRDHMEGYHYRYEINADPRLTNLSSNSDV

B1: chimeric anti-5T4 monoclonal antibody 811 (antibody, human IgG1, V domains shown)
VH: QSVEESGGRLVTPGTSLTLTCTASGFSLSTYAMIWVRQAPGKGLEWIGIINSSGYTYYANWAKGRFTISKTSTTVDLKITSPTTEDTATYFCARGNAGISYDVSFNLWGQGTLVTVSS
VL: AYDMTQTPASVEAGVGGTVTINCQASESISSWLAWYQQKPGQPPNLLIYEASKLASGVPSRFSGSGSGTEFTLTISGVESADAATYYCQQGWTSSNIDNAFGGGTEVVVK
B2: chimeric anti-5T4 monoclonal antibody 828 (antibody, human IgG1, V domains shown)
VH: QSVEESGGRLVTPGTPLTLTCTVSEIDLSTYAMSWVRQAPGKGLEWIGIISAGGSAYYASWAKGRFTISRTSTTVDLKMTSLTTEDTATYFCARGAAYAGYTYGFSFFDIWGPGTLVTVSL
VL: DIVMTQTPSSVSAAVGGTVTINCQASQNIYSNLAWYQQKPGQRPKLLIYGASNLESGVPSRFKGSGSGTEYTLTISDLESDDAATYYCQSIDYGNNYLGSFGGGTEVVVK
B3: chimeric anti-5T4 monoclonal antibody 908 (antibody, human IgG1, V domains shown)
VH: QSVEESGGRLVTPGTPLTLTCTVSGFSLSNFAMSWVRQAPGKGLEWIGIINGYGSIYYATWAKGRFTISKTSTTVDLKITSPTTEDTATYFCARGDAGRTYNHYFNIWGPGTLVTVSL
VL: DVVMTQTPASVEAAVGGTVTIKCQASQSISSWLSWYQQKPGQRPKLLIYAASNLASGVPSRFKGSGSGTQFTLTISDLESDDAATYYCQQGYTSYNVDNAFGGGTEVVVK
B4: chimeric anti-5T4 monoclonal antibody 829 (antibody, human IgG1, V domains shown)
VH: QSLEESGGRLVTPGTPLTLTCTASGFSLSSYDMSWVRQAPGKGLEYIGWINSDDGAYYANWAKGRFTISRTSTTVDLKITSPTTEDTATYFCARDAGSTYLYGLDPWGPGTLVTVSS
VL: DVVMTQTPSSVSAGVGGTVTIKCQASQSISSYLAWYQQKPGQRPKLLIYAASTLASGVSSRFKGSGSGTEYTLTINDLESADAATYYCQCTYYGGTYNTFGGGTEVVVK
B5: chimeric anti-5T4 monoclonal antibody 847 (antibody, human IgG1, V domains shown)
VH: QSVEESGGRLVTPGTPLTLTCTVSGFSLSSYDMSWVRQAPGKGLEYIGYINSDGSAYYASWAKGRFTISKTSSTTVDLKITSPTTEDTATYFCARDAGSTYLYGMDPWGPGTLVTVSS
VL: B4 VL with S9A, A13E, G14P, K22N, S30Y, E70Q, Y71F, N76S, Y97F
B6: humanized anti-5T4 antibody 789a with HC-41C mutation (antibody, V domains shown)
VH: EVKVEESGGGLVQPGGSLRLSCAASGFSLSSYWMSWVRQACGKGLEWVSIIAGRGSTYYASWAKGRFTISKDNSEGMVYLQMNSLRAEDTAVYYCARVSSIYYTFNLWGQGTTVTVSS
VL: EIVLTQSPSSLSASVGDRVTITCQSSQSVYSNNELSWYQQKPGKAPKLLIYYASTLASGVPSRFSGSGSGTDFTLTISSLQPEDFATYYCQGSYYSGSGWYYAFGQGTKLEIKR
B7: humanized anti-5T4 antibody 789d with HC-41C mutation (antibody, V domains shown)
VH: QSVEESGGGLVQPGGSLRLSCAASGFSLSSYWMSWVRQACGKGLEWIGIIAGRGSTYYASWAKGRFTISRDNSKNTLYLQMNSLRAEDTAVYYCARVSSIYYTFNLWGQGTLVTVSS
VL: B6 VL with E1A, I2Q, Q106G, L110V
B8: humanized anti-5T4 antibody 789b with HC-41C mutation (antibody, V domains shown)
VH: EVQLLESGGSLVLPGGSLRLSCAASGFSLSSYWMSWVRQACGKGLEWVSIIAGRGSTYYASWAKGRFTISRDNSKNTLYMQMNSLRAEDTALYFCARVSSIYYTFNLWGQGTLVTVSS
VL: B6 VL
B9: chimeric anti-5T4 antibody 899 with HC-41C mutation (antibody, human IgG1, V domains shown)
VH: QSVEESGGRLVTPGTPLTLTCTVSGFSLSSYTMSWVRQACGKGLEYIGIISSSDGTWYANWVKGRFTISKTSTTVDLKMTSLTTEDTATYFCARDGTGNKYYTWDRLDLWGQGTLVTVSS
VL: NIVMTQTPSPVSGAVGGTVTINCQASQSIYNELSWYQQKPGQPPKLLIYYASTLASGVSSRFKGSGSGTQFTLTISGVESVDAATYYCQQGYSSSNVDNVFGGGTEVVVK
notes: Human IgG1 constant parts; also called chimeric 899; 899 chimeric
B10: humanized anti-5T4 antibody 833a with HC-41C mutation (antibody, human IgG1, kappa, V domains shown)
VH: EVQLVESGGGLIQPGGSLRLSCAASGIDLSHYVVGWVRQACGKGLEWVSIIYGSGRTYYANWAKGRFTISKDNSKNTLYVRMNSLRAEDTAVYYCARDASVSVYYWGYFDLWGQGTLVTVSS
VL: AYDMTQSPSSVSASVGDRVTITCQASQSIGSELAWYQQKPGKAPKLLIYRASTLESGVPSRFSGSGSGTDFTLTISSLQPEDFATYYCQQGYTYSEIDNAFGGGTKVEIKR
B11: humanized anti-5T4 antibody 833b with HC-41C mutation (antibody, human IgG1, kappa, V domains shown)
VH: B10 VH with I12V, K71R, Y79F, V80L, A87V, Y94F
VL: B10 VL
B12: humanized anti-5T4 antibody 789c with HC-41C mutation (antibody, V domains shown)
VH: B7 VH
VL: DIVMTQSPDSLAVSLGERATINCQSSQSVYSNNELSWYQQKPGQPPKLLIYYASTLASGVPDRFSGSGSGTDFTLTISSLQAEDVAVYYCQGSYYSGSGWYYAFGGGTKLEIKR
B13: prior art anti-5T4 antibody H8 (H8 humanized variant 1) (antibody, human IgG1, kappa, V domains shown)
VH: QVQLVQSGAEVKKPGASVKVSCKASGYSFTGYYMHWVKQSPGQGLEWIGRINPNNGVTLYNQKFKDRVTMTRDTSISTAYMELSRLRSDDTAVYYCARSTMITNYVMDYWGQGTLVTVSS
VL: DIVMTQSPDSLAVSLGERATINCKASQSVSNDVAWYQQKPGQSPKLLISYTSSRYAGVPDRFSGSGSGTDFTLTISSLQAEDVAVYFCQQDYNSPPTFGGGTKLEIKR

Numbering of substitutions follows the chain as printed.

The target in one test is T1, human 5T4 oncofoetal antigen. In words: flow cytometry, PA-1 cells. Here is the method:
(§1) 17 antibodies were selected and affinity to 5T4 antigen was measured using MDA-MB-468 cells, PA-1 cells and Chinese Hamster Ovary (CHO) mammalian cells expressing human or cyno 5T4 antigen (Table 2). In the current application the utilized CHO cells are referred to as CHOZN as these CHO cells expressing human or cyno 5T4 antigen were obtained using the CHOZN® Platform of Sigma-Aldrich. CHOZN cells (SAFC) were transiently transfected, using an Amaxa nucleofector device (Lonza) according to the manufacturer's instructions. Standard, commercially available mammalian expression vectors (SAFC, Life Technologies) were used, which contained the full length human and cyno 5T4 antigen coding sequence (according to accession number NP 006661.1 and Q4R8Y9 respectively), preceded by a human CMV promoter. Transiently transfected CHOZN cells were cultured according the manufacturer's instructions, before being used in antibody binding studies. The 17 selected antibodies are characterised by the amino acid sequences according to the following table (Table 1).
(§2) MDA-MB-468 cells, PA-1 cells or CHOZN cells expressing human or cyno 5T4 antigen (100,000 cells/well in a 96-well plate) were washed three times with ice-cold FACS buffer (1×PBS (Lonza) containing 0.2% v/w BSA (Sigma-Aldrich, St. Louis, Mo.)) and 0.02% v/w NaN3 (Sigma-Aldrich), followed by the addition of a concentration range of each primary mAb (50 μl/well) diluted in ice-cold FACS buffer. After an incubation of 30 minutes at 4° C., cells were washed three times with ice-cold FACS buffer and 50 μl/well secondary mAb (AffiniPure F(ab′)2 fragment Goat-anti-human IgG-APC, 1:6,000 dilution, Jackson Immuno Research) was added. After 30 minutes at 4° C., cells were washed twice and resuspended in 150 μl FACS buffer. Fluorescence intensities were determined by flow cytometry (BD FACSVerse, Fanklin Lakes, N.J.) and indicated as the median fluorescence intensity (MFI). Curves were fitted by nonlinear regression using the sigmoidal dose-response equation with variable slope (four parameters) in GraphPad Prism (version 5.01/6.01 for Windows, GraphPad, San Diego, Calif.). EC₅₀ values were calculated as the concentration in μg/ml that gives a response half way between bottom and top of the curve, when using a 4 parameter logistic fit.
A general note: Flow cytometry measures light scatter and fluorescence of single cells or particles in a stream.
B1 returned an EC50 of 0.4 µg/mL.
On the same count and under the same terms, next, B2: 0.1 µg/mL.
In turn, B3 showed an EC50 of 0.04 µg/mL.
The molecule B4 came in with a concentration for a half-maximal effect (EC50) of 0.07 µg/mL.
On the same count and under the same terms, next, B5: 0.22 µg/mL.

The target is the same in a further test. In words: flow cytometry, MDA-MB-468 cells. Here is the method: as §1, §2
Molecule B1 registered an EC50 of 0.73 µg/mL.
B2 had an EC50 of 0.1 µg/mL.
Regarding B3, the EC50 came to 0.21 µg/mL.
The same measure, in the same setting: next, B4: 0.17 µg/mL.
On the same count and under the same terms, next, B5: 0.2 µg/mL.

The target in the next test is T2, cynomolgus monkey 5T4 antigen. As to the kind of experiment: flow cytometry, CHOZN cells expressing cyno 5T4. Here is the method:
as §2
Take B1: the “fold improvement of binding compared to H8 on cyno 5T4” value turned out to be 32 fold.
The same measure, in the same setting: next, B2: 7 fold; B3: 32 fold.
The same measure, in the same setting: next, B4: 32 fold; B5: 32 fold.

Another test has as its target T1, human 5T4 oncofoetal antigen. As to the kind of experiment: flow cytometry, CHOZN cells expressing hu 5T4. Here is the method: as §1, §2
In the case of B1, a half-maximal effect (EC50) was put at 0.34 µg/mL.
On the same count and under the same terms, next, B2: 0.19 µg/mL; B3: 0.23 µg/mL.
Still for that read-out and setting: next, B4: 0.24 µg/mL; B5: 0.22 µg/mL.

The target is the same in a further test. As to the kind of experiment: flow cytometry, CHOZN cells expressing hu 5T4. This is another data set of the same source.
B6 showed an EC50 of 0.2 µg/mL.
The same measure, in the same setting: next, B7: 0.12 µg/mL; B8: 0.15 µg/mL; B9: 0.14 µg/mL.
Still for that read-out and setting: next, B10: 0.22 µg/mL; B11: 0.15 µg/mL; B12: 0.2 µg/mL.

The target in the next test is T2, cynomolgus monkey 5T4 antigen. As to the kind of experiment: flow cytometry, CHOZN cells expressing cyno 5T4. The source holds these as a separate data set. Here is the method: as §1, §2
In turn, B1 yielded an EC50 of 0.25 µg/mL.
The same measure, in the same setting: next, B2: 0.82 µg/mL; B3: 0.24 µg/mL.
Still for that read-out and setting: next, B13: 8.11 µg/mL; B4: 0.22 µg/mL; B5: 0.2 µg/mL.

The target is the same in a further test. As to the kind of experiment: flow cytometry, CHOZN cells expressing cyno 5T4. The source holds these as a separate data set.
B6 had an EC50 of 0.33 µg/mL.
Regarding B7, the 50% effective concentration (EC50) worked out at 0.15 µg/mL.
On to B8, for which the half-maximal effective concentration (EC50) came to 0.24 µg/mL.
The same measure, in the same setting: next, B9: 0.18 µg/mL.
Same read-out and setting: next, B10: 0.12 µg/mL; B11: 0.18 µg/mL; B13: 1.99 µg/mL.
In the case of B12, a half-maximal response (EC50) required 0.21 µg/mL.
